# Measurements from publication PMC10161774.
# T1: Recombinant tissue transglutaminase (tG) (human), P21980
# T1 chain: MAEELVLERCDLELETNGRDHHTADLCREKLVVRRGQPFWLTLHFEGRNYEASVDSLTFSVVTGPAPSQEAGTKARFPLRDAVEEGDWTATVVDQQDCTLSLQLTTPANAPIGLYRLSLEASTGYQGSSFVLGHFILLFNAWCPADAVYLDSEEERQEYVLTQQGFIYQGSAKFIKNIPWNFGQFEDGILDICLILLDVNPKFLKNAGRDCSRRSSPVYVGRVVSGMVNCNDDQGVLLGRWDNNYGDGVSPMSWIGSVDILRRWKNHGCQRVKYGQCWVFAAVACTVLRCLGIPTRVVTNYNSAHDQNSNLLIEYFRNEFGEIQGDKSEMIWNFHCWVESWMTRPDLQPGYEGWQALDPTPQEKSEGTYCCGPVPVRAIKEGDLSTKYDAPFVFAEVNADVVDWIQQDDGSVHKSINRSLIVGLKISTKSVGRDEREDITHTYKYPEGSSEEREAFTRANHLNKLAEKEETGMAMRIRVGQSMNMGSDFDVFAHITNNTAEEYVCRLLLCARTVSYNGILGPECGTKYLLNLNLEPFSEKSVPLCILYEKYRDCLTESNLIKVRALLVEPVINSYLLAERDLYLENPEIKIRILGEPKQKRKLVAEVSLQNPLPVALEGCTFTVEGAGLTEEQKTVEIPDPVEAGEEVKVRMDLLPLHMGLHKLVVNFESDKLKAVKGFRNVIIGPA
# B1: Recombinant tissue transglutaminase (tG), P21980 1-687 (enzyme)
# chain: MAEELVLERCDLELETNGRDHHTADLCREKLVVRRGQPFWLTLHFEGRNYEASVDSLTFSVVTGPAPSQEAGTKARFPLRDAVEEGDWTATVVDQQDCTLSLQLTTPANAPIGLYRLSLEASTGYQGSSFVLGHFILLFNAWCPADAVYLDSEEERQEYVLTQQGFIYQGSAKFIKNIPWNFGQFEDGILDICLILLDVNPKFLKNAGRDCSRRSSPVYVGRVVSGMVNCNDDQGVLLGRWDNNYGDGVSPMSWIGSVDILRRWKNHGCQRVKYGQCWVFAAVACTVLRCLGIPTRVVTNYNSAHDQNSNLLIEYFRNEFGEIQGDKSEMIWNFHCWVESWMTRPDLQPGYEGWQALDPTPQEKSEGTYCCGPVPVRAIKEGDLSTKYDAPFVFAEVNADVVDWIQQDDGSVHKSINRSLIVGLKISTKSVGRDEREDITHTYKYPEGSSEEREAFTRANHLNKLAEKEETGMAMRIRVGQSMNMGSDFDVFAHITNNTAEEYVCRLLLCARTVSYNGILGPECGTKYLLNLNLEPFSEKSVPLCILYEKYRDCLTESNLIKVRALLVEPVINSYLLAERDLYLENPEIKIRILGEPKQKRKLVAEVSLQNPLPVALEGCTFTVEGAGLTEEQKTVEIPDPVEAGEEVKVRMDLLPLHMGLHKLVVNFESDKLKAVKGFRNVIIGPA
# Biological target: T1, Recombinant tissue transglutaminase …
# Experiment: time-resolved SAXS; Kenics mixer (straight opening device, reaction class 3); 2 mg ml^-1 tG mixed with 4 mM CaCl2 in 20 mM HEPES pH 7.5, 100 mM NaCl, 10% glycerol, 1 mM DTT; time points 32-1500 ms; monomer to dimer
# Details: remark: other sources report otherwise
binder,measurement,value
B1,stoichiometry N,2
